One substance from patent publication EP1444995A1 can be followed below.

This assay has as its target endogenous Translokin of mouse NIH-3T3 cells (mouse) (UniProt Q8CEE0). Nature of the assay: cell-based or functional assay.
Chain of UniProt Q8CEE0 (Q8CEE0 whole entry): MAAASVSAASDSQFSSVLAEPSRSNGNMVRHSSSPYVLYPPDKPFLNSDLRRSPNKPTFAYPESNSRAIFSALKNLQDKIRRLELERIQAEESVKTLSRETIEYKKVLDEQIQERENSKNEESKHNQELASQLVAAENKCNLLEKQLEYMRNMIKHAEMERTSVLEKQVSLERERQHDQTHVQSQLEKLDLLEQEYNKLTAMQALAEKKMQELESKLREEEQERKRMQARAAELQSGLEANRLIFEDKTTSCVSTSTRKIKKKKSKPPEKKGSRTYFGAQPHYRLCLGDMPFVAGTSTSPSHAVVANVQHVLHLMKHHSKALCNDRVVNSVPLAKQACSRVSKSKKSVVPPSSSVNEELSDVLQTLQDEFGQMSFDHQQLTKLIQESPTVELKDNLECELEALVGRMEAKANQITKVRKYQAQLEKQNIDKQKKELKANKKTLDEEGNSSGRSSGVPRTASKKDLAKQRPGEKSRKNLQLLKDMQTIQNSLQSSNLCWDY

HA-tagged FGF-2 (18 kDa) (ligand) yielded an FGF-2 nuclear accumulation in NIH-3T3 cells after Translokin siRNA of 80%.
